These are literature values, as cited in PMC4543363.

Series [1] concerns the target NF-κB dimer (Homo sapiens) (UniProt P19838).
The next series addresses NF-κB p50 (Homo sapiens) (UniProt P19838).

As for IκBα (from UniProt P25963), the Kd in series [1] was under 0.1 nM.
Regarding NF-κB p65 (from UniProt Q04206), in the series with NF-κB p50 (Homo sapiens), the Kd was 100 nM.

As a reminder, the Kd is the free concentration of one partner at which half of the binding sites on the other are occupied at equilibrium, for simple one-to-one binding.
